PMC10786891, “Massively parallel profiling of RNA-targeting CRISPR-Cas13d”
Where a chain is given by its changes, count along the chain named. In names and notes the source's numbering stands.

T1: EsCas13d, nuclease-dead (Eubacterium siraeum, UniProt B0MS50, R295A;H300A;R849A;H854A)
T1 sequence: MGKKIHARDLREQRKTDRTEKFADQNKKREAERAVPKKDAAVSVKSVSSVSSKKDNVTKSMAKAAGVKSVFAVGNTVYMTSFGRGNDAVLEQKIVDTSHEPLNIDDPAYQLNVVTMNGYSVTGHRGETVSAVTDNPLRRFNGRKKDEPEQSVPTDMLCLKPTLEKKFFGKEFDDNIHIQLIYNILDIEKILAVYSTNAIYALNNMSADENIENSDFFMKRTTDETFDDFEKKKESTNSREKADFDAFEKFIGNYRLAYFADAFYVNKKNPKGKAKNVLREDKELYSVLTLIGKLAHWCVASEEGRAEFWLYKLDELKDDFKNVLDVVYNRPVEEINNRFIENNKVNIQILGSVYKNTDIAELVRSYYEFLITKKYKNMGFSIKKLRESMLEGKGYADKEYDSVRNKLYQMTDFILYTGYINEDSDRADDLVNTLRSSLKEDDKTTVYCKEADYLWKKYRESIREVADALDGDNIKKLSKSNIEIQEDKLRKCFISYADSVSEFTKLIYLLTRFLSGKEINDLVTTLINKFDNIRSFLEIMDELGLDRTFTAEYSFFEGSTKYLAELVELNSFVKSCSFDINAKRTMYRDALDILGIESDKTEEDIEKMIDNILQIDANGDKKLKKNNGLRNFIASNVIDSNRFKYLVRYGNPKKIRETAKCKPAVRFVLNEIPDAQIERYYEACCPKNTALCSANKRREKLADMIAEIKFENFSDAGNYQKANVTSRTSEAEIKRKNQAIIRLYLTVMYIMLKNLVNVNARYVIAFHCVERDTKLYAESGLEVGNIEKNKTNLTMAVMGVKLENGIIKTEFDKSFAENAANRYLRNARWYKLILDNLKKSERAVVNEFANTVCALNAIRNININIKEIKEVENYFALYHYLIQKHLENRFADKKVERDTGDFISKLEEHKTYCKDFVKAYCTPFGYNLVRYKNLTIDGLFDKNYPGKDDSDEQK

B1: target 1 C7A,C22A (mixed)
RNA 1: CACCCGUGCAAAAAUGCAGGGGUCUAAAACUGAGCGGAUAACCUCUCUAUGG
RNA 2: GGGAAUGGAUCCACAUCUACGAAUUCGUAACAUAGAGAGGUUAUACGCUCACCGAGAUCGGAAGAGCACACGU
B2: target 1 insU 3' of 7,insG 3' of 3 (mixed)
RNA 1: B1 RNA 1
RNA 2: GGGAAUGGAUCCACAUCUACGAAUUCGUACCAUAGAGAGGUUAUCUCGCUGCACCGAGAUCGGAAGAGCACACGU
B3: target 1 G12U,A16U (mixed)
RNA 1: B1 RNA 1
RNA 2: B1 RNA 2 with A30C, A36U, G40U, A45C
B4: target 1 U8C,A9U (mixed)
RNA 1: B1 RNA 1
RNA 2: B1 RNA 2 with A30C, A43U, U44C, A45C
B5: target 1 insA 3' of 10,insU 3' of 4 (mixed)
RNA 1: B1 RNA 1
RNA 2: B2 RNA 2 with U44A, C45U, U46C, G51U
B6: target 1 del13,del16 (mixed)
RNA 1: B1 RNA 1
RNA 2: GGGAAUGGAUCCACAUCUACGAAUUCGUACCAUAGGAGUUAUCCGCUCACCGAGAUCGGAAGAGCACACGU
B7: target 1 insU 3' of 15,insG 3' of 8 (mixed)
RNA 1: B1 RNA 1
RNA 2: GGGAAUGGAUCCACAUCUACGAAUUCGUACCAUAGAGUAGGUUAUGCCGCUCACCGAGAUCGGAAGAGCACACGU
B8: target 1 A1U,U3C (mixed)
RNA 1: B1 RNA 1
RNA 2: B1 RNA 2 with A30C, A45C, U49C, A51U
B9: target 1 C4U,A9C (mixed)
RNA 1: B1 RNA 1
RNA 2: B1 RNA 2 with A30C, A43C, A45C, C48U
B10: target 1 insG 3' of 19,insG 3' of 8 (mixed)
RNA 1: B1 RNA 1
RNA 2: B7 RNA 2 with A34G, G35A, A36G, G37A, U38G
B11: target 1 insG 3' of 16,insU 3' of 1 (mixed)
RNA 1: B1 RNA 1
RNA 2: B7 RNA 2 with U38G, G46C, C48G, G49C, C50U, U51C, C52A, A53U
B12: target 1 del2,del17 (mixed)
RNA 1: B1 RNA 1
RNA 2: GGGAAUGGAUCCACAUCUACGAAUUCGUACCAUAAGAGGUUAUCCGCUACCGAGAUCGGAAGAGCACACGU
B13: target 1 U8G,A20C (mixed)
RNA 1: B1 RNA 1
RNA 2: B1 RNA 2 with A30C, A32C, U44G, A45C
B14: target 1 C4G,A18G (mixed)
RNA 1: B1 RNA 1
RNA 2: B1 RNA 2 with A30C, A34G, A45C, C48G
B15: target 1 U3G,C21U (mixed)
RNA 1: B1 RNA 1
RNA 2: B1 RNA 2 with A30C, C31U, A45C, U49G
B16: target 1 C7U,G15A (mixed)
RNA 1: B1 RNA 1
RNA 2: B1 RNA 2 with A30C, G37A, A45U
B17: target 1 del1,del4 (mixed)
RNA 1: B1 RNA 1
RNA 2: GGGAAUGGAUCCACAUCUACGAAUUCGUACCAUAGAGAGGUUAUCCGUCCCGAGAUCGGAAGAGCACACGU
B18: target 1 insU 3' of 21,insG 3' of 8 (mixed)
RNA 1: B1 RNA 1
RNA 2: B7 RNA 2 with A32U, U33A, A34U, G35A, A36G, G37A, U38G
B19: target 1 insA 3' of 11,insU 3' of 6 (mixed)
RNA 1: B1 RNA 1
RNA 2: B7 RNA 2 with U38A, A39G, G41U, U42A, G46C, C48U
B20: target 1 C6G,A9G (mixed)
RNA 1: B1 RNA 1
RNA 2: B1 RNA 2 with A30C, A43G, A45C, C46G
B21: target 1 C6G,U11A (mixed)
RNA 1: B1 RNA 1
RNA 2: B1 RNA 2 with A30C, U41A, A45C, C46G
B22: target 1 A1C,U11C (mixed)
RNA 1: B1 RNA 1
RNA 2: B1 RNA 2 with A30C, U41C, A45C, A51C
B23: target 1 insC 3' of 10,insU 3' of 7 (mixed)
RNA 1: B1 RNA 1
RNA 2: B7 RNA 2 with U38A, A39G, G41U, U43C, G46C, C47U
B24: target 1 insC 3' of 10,insA 3' of 8 (mixed)
RNA 1: B1 RNA 1
RNA 2: B7 RNA 2 with U38A, A39G, G41U, U43C, G46A
B25: target 1 U11C (mixed)
RNA 1: B1 RNA 1
RNA 2: B1 RNA 2 with A30C, U41C, A45C
B26: target 1 A1U,U3A (mixed)
RNA 1: B1 RNA 1
RNA 2: B1 RNA 2 with A30C, A45C, U49A, A51U
B27: target 1 insG 3' of 8,insA 3' of 4 (mixed)
RNA 1: B1 RNA 1
RNA 2: B2 RNA 2 with C45G, U46C, U50A, G51U
B28: target 1 U3G,G12A (mixed)
RNA 1: B1 RNA 1
RNA 2: B1 RNA 2 with A30C, G40A, A45C, U49G
B29: target 1 insA 3' of 22,insC 3' of 13 (mixed)
RNA 1: B1 RNA 1
RNA 2: GGGAAUGGAUCCACAUCUACGAAUUCGUACACAUAGAGAGCGUUAUCCGCUCACCGAGAUCGGAAGAGCACACGU
B30: target 1 A1C,U3A (mixed)
RNA 1: B1 RNA 1
RNA 2: B1 RNA 2 with A30C, A45C, U49A, A51C
B31: target 1 del2,del4 (mixed)
RNA 1: B1 RNA 1
RNA 2: B17 RNA 2 with C49A
B32: target 1 C22U (mixed)
RNA 1: B1 RNA 1
RNA 2: B1 RNA 2 with A30U, A45C
B33: target 1 U8G,G13A (mixed)
RNA 1: B1 RNA 1
RNA 2: B1 RNA 2 with A30C, G39A, U44G, A45C
B34: target 1 U3A (mixed)
RNA 1: B1 RNA 1
RNA 2: B1 RNA 2 with A30C, A45C, U49A

These binders were tested against T1, EsCas13d, nuclease-dead (assay: crRNA (strand 1, pre-loaded); Mg2+; 40 mM Tris-HCl pH 7.5, 150 mM NaCl, 6 mM MgCl2, 1 mM DTT, 0.1% Tween-20, 0.2 mg/ml BSA; 25 C; 10 min per concentration, then washed). Conditions: tags: His6-TwinStrep-SUMO cleaved; N-terminal SNAP kept (SNAP-Surface 488); label: 3' end held by stalled T7 RNA polymerase.

Binder	Kd [nM]
B1	12.1 ± 0.5
B2	5.45 ± 0.31
B3	79 ± 18
B4	20.5 ± 0.8
B5	9.3 ± 0.6
B6	94 ± 28
B7	18.3 ± 1.7
B8	20.9 ± 1.9
B9	26 ± 4
B10	58 ± 6
B11	16 ± 1.3
B12	~70
B13	91 ± 34
B14	36 ± 12
B15	11 ± 1.2
B16	9.8 ± 0.6
B17	42 ± 8

Binder	Kd [nM]
B18	34.9 ± 3
B19	18.2 ± 0.7
B20	10.6 ± 0.9
B21	25.4 ± 0.9
B22	22 ± 4
B23	19.2 ± 1.3
B24	18.8 ± 0.8
B25	8.9 ± 0.6
B26	7.2 ± 0.6
B27	12 ± 0.7
B28	4 ± 0.5
B29	22 ± 1.3
B30	37 ± 7
B31	42 ± 10
B32	16.6 ± 1.1
B33	12.6 ± 0.9
B34	15 ± 1.3
